B1: Tumor susceptibility gene 101 protein (Homo sapiens), Q99816 (parent)
chain: MAVSESQLKKMVSKYKYRDLTVRETVNVITLYKDLKPVLDSYVFNDGSSRELMNLTGTIPVPYRGNTYNIPICLWLLDTYPYNPPICFVKPTSSMTIKTGKHVDANGKIYLPYLHEWKHPQSDLLGLIQVMIVVFGDEPPVFSRPISASYPPYQATGPPNTSYMPGMPGGISPYPSGYPPNPSGYPGCPYPPGGPYPATTSSQYPSQPPVTTVGPSRDGTISEDTIRASLISAVSDKLRWRMKEEMDRAQAELNALKRTEEDLKKGHQKLEEMVTRLDQEVAEVDKNIELLKKKDEELSSALEKMENQSENNDIDEVIIPTAPLYKQILNLYAEENAIEDTIFYLGEALRRGVIDLDVFLKHVRLLSRKQFQLRALMQKARKTAGLSDLY

The values that follow come from IntAct's records for PubMed 12802020.

In this test the parent is B1. Conditions: with hgs_human HGS.
On to Y63A, for which the “effect of a mutation on the interaction” value is given as “decreasing interaction”.
The value for N45A was “decreasing interaction strength”; that for V89A was “decreasing interaction strength”; that for M95A was “decreasing interaction strength”.
For the variant P320L;P323L, the “effect of a mutation on the interaction” value is reported as “increasing interaction strength”.
